Test results: paper PMC11601262

Target: T1, CFP tagged hABHD5 (FCCS) (human), Q8WTS1
T1 chain: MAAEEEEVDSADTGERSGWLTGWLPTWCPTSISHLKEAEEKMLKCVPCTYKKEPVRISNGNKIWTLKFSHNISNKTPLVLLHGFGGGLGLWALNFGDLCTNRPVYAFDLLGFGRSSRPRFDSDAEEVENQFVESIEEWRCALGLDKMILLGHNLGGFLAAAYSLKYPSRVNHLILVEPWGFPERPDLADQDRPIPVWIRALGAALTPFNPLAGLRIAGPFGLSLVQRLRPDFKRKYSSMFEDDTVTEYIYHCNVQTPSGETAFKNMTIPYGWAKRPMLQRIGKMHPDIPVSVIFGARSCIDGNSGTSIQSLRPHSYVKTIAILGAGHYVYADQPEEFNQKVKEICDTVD
Assay: fluorescence cross-correlation spectroscopy
Conditions: remark: other sources report otherwise

- percent of ABHD5 co-diffusing with PNPLA3: 24%
- percent of PNPLA3 co-diffusing with ABHD5: 78%
B1: hPNPLA3 WT-EYFP, Q9NST1 1-481 (natural protein)
chain: MYDAERGWSLSFAGCGFLGFYHVGATRCLSEHAPHLLRDARMLFGASAGALHCVGVLSGIPLEQTLQVLSDLVRKARSRNIGIFHPSFNLSKFLRQGLCKCLPANVHQLISGKIGISLTRVSDGENVLVSDFRSKDEVVDALVCSCFIPFYSGLIPPSFRGVRYVDGGVSDNVPFIDAKTTITVSPFYGEYDICPKVKSTNFLHVDITKLSLRLCTGNLYLLSRAFVPPDLKVLGEICLRGYLDAFRFLEEKGICNRPQPGLKSSSEGMDPEVAMPSWANMSLDSSPESAALAVRLEGDELLDHLRLSILPWDESILDTLSPRLATALSEEMKDKGGYMSKICNLLPIRIMSYVMLPCTLPVESAIAIVQRLVTWLPDMPDDVLWLQWVTSQVFTRVLMCLLPASRSQMPVSSQQASPCTPEQDWPCWTPCSPKGCPAETKAEATPRSILRSSLNFFLGNKVPAGAEGLSTFPSFSLEKSL
